Earlier results as cited in US12251426B2 (priority 2020, dated 2025).

B1: Bovine lactoferrin: water-soluble protein obtainable through bovine milk (protein, UniProt P24627 20-708, looked up)
Lactotransferrin: APRKNVRWCTISQPEWFKCRRWQWRMKKLGAPSITCVRRAFALECIRAIAEKKADAVTLDGGMVFEAGRDPYKLRPVAAEIYGTKESPQTHYYAVAVVKKGSNFQLDQLQGRKSCHTGLGRSAGWIIPMGILRPYLSWTESLEPLQGAVAKFFSASCVPCIDRQAYPNLCQLCKGEGENQCACSSREPYFGYSGAFKCLQDGAGDVAFVKETTVFENLPEKADRDQYELLCLNNSRAPVDAFKECHLAQVPSHAVVARSVDGKEDLIWKLLSKAQEKFGKNKSRSFQLFGSPPGQRDLLFKDSALGFLRIPSKVDSALYLGSRYLTTLKNLRETAEEVKARYTRVVWCAVGPEEQKKCQQWSQQSGQNVTCATASTTDDCIVLVLKGEADALNLDGGYIYTAGKCGLVPVLAENRKSSKHSSLDCVLRPTEGYLAVAVVKKANEGLTWNSLKDKKSCHTAVDRTAGWNIPMGLIVNQTGSCAFDEFFSQSCAPGADPKSRLCALCAGDDQGLDKCVPNSKEKYYGYTGAFRCLAEDVGDVAFVKNDTVWENTNGESTADWAKNLNREDFRLLCLDGTRKPVTEAQSCHLAVAPNHAVVSRSDRAAHVKQVLLHQQALFGKNGKNCPDKFCLFKSETKNLLFNDNTECLAKLGGRPTYEEYLGTEYVTAIANLKKCSTSPLLEACAFLTR
In the case of B1, the water solubility is given as “water-soluble”.
